Experimental data taken from patent US20020193575A1 (published 2002).

Biological target: T1, recombinant E. coli human IL4 (non-glycosylated) (human, UniProt P05112 25-153)
T1 sequence (looked up): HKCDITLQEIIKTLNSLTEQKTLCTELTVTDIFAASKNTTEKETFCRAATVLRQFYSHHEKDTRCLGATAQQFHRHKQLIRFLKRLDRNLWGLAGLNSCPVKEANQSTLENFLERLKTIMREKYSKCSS
Assay: cell-based or functional assay

B1: humanized 3B9 (IgG1) (antibody, V domains shown)
VH: QVTLRESGPALVKPTQTLTLTCTFSGFSLSTSGMGVSWIRQPPGKGLEWLAHIYWDDDKRYNPSLKSRLTISKDTSRNQVVLTMTNMDPVDTATYYCARRETVFYWYFDVWGRGTPVTVSS
VL: IVMTQSPDSLAVSLGERATINCKASQSVDYDGDSYMNWYQQKPGQPPKLLIYAASNLESGVPDRFSGSGSGTDFTLTISSLQAEDVAVYYCQQSNEDPPRFGGGTKVEIKR
  B cell proliferation (3H thymidine), IC50: 0.047 nM
